Molecular target: recombinant mouse ICAM-1 (mouse) (UniProt P13597)
Assay: cell-based or functional assay

Chain of UniProt P13597 (P13597 28-485 limits assumed): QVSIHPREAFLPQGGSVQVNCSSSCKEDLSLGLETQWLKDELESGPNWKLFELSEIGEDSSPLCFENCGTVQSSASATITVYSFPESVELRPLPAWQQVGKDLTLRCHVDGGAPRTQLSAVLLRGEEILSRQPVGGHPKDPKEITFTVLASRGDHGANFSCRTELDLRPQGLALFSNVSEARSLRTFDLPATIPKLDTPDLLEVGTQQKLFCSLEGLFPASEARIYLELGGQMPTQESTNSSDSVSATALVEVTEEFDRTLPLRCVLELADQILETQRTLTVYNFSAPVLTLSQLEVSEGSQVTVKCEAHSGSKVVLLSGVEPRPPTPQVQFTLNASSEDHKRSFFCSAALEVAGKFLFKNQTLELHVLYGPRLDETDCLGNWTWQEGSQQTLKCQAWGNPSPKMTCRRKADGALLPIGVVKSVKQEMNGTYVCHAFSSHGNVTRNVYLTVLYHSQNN

adhesion of WT preactivated CD4+ T cells to ICAM-1-coated plates (percent of input cells): 10%
adhesion of WT preactivated CD4+ T cells to ICAM-1-coated plates, fold over basal after CXCL12, CCL21 or anti-CD3: 2 to 5 fold
Substance: LFA-1 on mouse preactivated CD4+ T cells (from UniProt P24063 24-1162; P11835 24-771) (receptor)

— patent publication US20160339053A1
